One series relates to Sprague-Dawley rats. The note with it: one year of treatment; cited from earlier work.
The target in a further series is IR (Homo sapiens, UniProt P06213). Conditions: known in the art; cited from earlier work.
Series [1] concerns human breast-cancer cell line MCF-7. Briefly: MCF-7 colony formation in soft agar (mitogenicity). Format: cell-based. Conditions: 100 nM protein, 3 weeks, relative to basal; preliminary assays.
Description: Assay for MCF-7 Colony Formation in Soft Agar.
In our preliminary assays MCF-7 cells (1.5×10^3 cells in 0.75 ml, obtained from ATCC cat #HTB-22), were mixed with an equal volume Bacto-agar at 42° C. This 0.3% agar suspension was poured over a 1.5-ml base of 0.6% agar in 12-well plates and overlaid with basal growth medium with (or without) insulin or insulin analogues at a protein concentration of 100 nM, which was replenished 3× per week. Plates were incubated at 37° C. in a CO2 tissue-culture incubator for 3 weeks, at which time colonies were stained with crystal violet and counted under an inverted microscope. A positive control was provided by IGF-I (not shown) and a negative control by medium lacking insulin or an insulin analogue (“basal” in FIG. 6).
The subject of series [2] is male Lewis rats rendered diabetic by streptozotocin. Conditions: statement on a current insulin product, not tested here; cited from earlier work.

“Asp^B10-insulin: insulin analogue with His^B10 substituted by Asp, known in the art”: the “Mammary tumors on chronic treatment” value in the series on Sprague-Dawley rats was “excess mammary tumors”. In addition, the “Enhancement of affinity for the IR relative to insulin” value in the series with IR is listed as “twofold”.
For the substance “human proinsulin: wild-type human proinsulin (SEQ ID NO: 1)”, the “Mitogenicity: MCF-7 colony formation in soft agar” value in series [1] was “negligible activities”.
On to insulin detemir, for which, in series [2], the “Nanomoles needed for equivalent therapeutic effects” value was “threefold”.

The values are drawn from patent US10703792B2, “Insulin analogues with selective signaling properties and reduced mitogenicity” (Case Western Reserve University, priority 2015, dated 2020).
